The data set “AUC” concerns the molecule itself. Briefly: AUC.
Data set [1] concerns the molecule itself.

B1: hs PCDH15 EC2-3 WT (domain or fragment)
chain: NSPTFKHESYYATVNELTPVGTTIFTGFSGDNGATDIDDGPNGQIEYVIQYNPDDPTSNDTFEIPLMLTGNIVLRKRLNYEDKTRYFVIIQANDRAQNLNERRTTTTTLTVDVLDGDDLGPMFLPCVLVPNTRDCRPLTYQAAIPELRTPEELNPIIVTPPIQAIDQDRNIQPPSDRPGILYSILVGTPEDYPRFFHMHPRTAELSLLEPVNRDFHQKFDLVIKAEQDNGHPLPAFAGLHIEILDENN
In “AUC”, B1 returned a Kd of less than 1000 nM.

B2: hs PCDH15 EC1-3 G16D/N369D/Q370N (domain or fragment)
chain: not shown
As for B2, in data set [1], the “stoichiometry N” value is 2.

Source of the values: paper PMC7547225 (Proceedings of the National Academy of Sciences of the …, 2020).
